Data on two molecules can be found in patent publication US20100093634A1 (UNIVERSITY OF MARYLAND BALTIMORE, published 2010).

Experiment [1] addresses N2.1/ROMK chimera with the N375PNF tract replaced with AAAA. The experiment is described as follows: cell-based or functional assay.
The target of a further experiment is T1, myc-tagged ARH (human, UniProt Q5SW96 1-308, limits assumed).
T1 construct: Expressed in COS-7 cells
T1 sequence: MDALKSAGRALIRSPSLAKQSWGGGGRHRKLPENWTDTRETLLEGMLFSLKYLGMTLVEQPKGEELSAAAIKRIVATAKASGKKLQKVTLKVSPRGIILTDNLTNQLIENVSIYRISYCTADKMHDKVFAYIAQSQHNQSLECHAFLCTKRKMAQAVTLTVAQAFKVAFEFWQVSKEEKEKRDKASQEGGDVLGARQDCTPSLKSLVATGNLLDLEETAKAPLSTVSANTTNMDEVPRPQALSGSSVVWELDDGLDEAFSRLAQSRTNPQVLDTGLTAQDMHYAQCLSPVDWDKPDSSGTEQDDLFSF
The experiment is described as follows: co-immunoprecipitation from COS-7 cells. The protocol: Using immunofluorescent confocal microscopy it was determined that ARH is predominately expressed in the distal nephron, where it co-localizes with ROMK in subapical and perinuclear compartments (FIG. 2A). See Example D. It was also determined that ROMK co-immunoprecipitates with ARH on anti-ARH antibody-bound beads but not with an unrelated IgG (FIG. 2B). The specificity of the ARH-ROMK co-immunoprecipitation was corroborated by similar studies with different antibodies, HA-epitope-tagged ROMK and myc-tagged-ARH in COS-7 cells (FIGS. 2C & D). Importantly, alanine replacement of the NPNF motif in ROMK completely abrogated the ARH-ROMK co-immunoprecipitation.

Molecule “ARH co-expressed in COS-7 cells (from UniProt Q5SW96 1-308)” yielded a surface expression in experiment [1] of 100%.

B1: HA-epitope-tagged mutant ROMK lacking the NPXF motif (alanine replacement of the NPNF motif) (other)
chain: MGASERSVFRVLIRALTERMFKHLRRWFITHIFGRSRQRARLVSKEGRCNIEFGNVDAQSRFIFFVDIWTTVLDLKWRYKMTVFITAFLGSWFLFGLLWYVVAYVHKDLPEFYPPDNRTPCVENINGMTSAFLFSLETQVTIGYGFRFVTEQCATAIFLLIFQSILGVIINSFMCGAILAKISRPKKRAKTITFSKNAVISKRGGKLCLLIRVANLRKSLLIGSHIYGKLLKTTITPEGETIILDQTNINFVVDAGNENLFFISPLTIYHIIDHNSPFFHMAAETLSQQDFELVVFLDGTVESTSATCQVRTSYVPEEVLWGYRFVPIVSKTKEGKYRVDFHNFGKTVEVETPHCAMCLYNEKDARARMKRGYDAAAAVLSEVDETDDTQM
notes: Expressed in COS-7 cells
Consider B1, for which, in the experiment with myc-tagged ARH, the binding result was “no binding”.
